Measured values published in publication PMC6440994, “Human RAD51 paralogue SWSAP1 fosters RAD51 filament by regulating the anti-recombinase FIGNL1 AAA+ ATPase” (Nature Communications, 2019).

Target: T1, RAD51 (protein of the in vitro assays) (UniProt Q06609 1-339)
T1 sequence (looked up): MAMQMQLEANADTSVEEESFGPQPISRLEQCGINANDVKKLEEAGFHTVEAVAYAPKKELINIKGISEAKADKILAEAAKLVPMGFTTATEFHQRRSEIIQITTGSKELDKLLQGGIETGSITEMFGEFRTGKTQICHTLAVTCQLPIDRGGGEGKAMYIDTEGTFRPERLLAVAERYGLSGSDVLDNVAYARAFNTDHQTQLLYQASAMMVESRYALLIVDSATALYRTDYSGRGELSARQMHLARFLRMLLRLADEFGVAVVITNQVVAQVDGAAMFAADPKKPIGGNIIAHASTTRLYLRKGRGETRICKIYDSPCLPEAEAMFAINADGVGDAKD
Assay: cell-based or functional assay

B1: FIGNL1ΔN-EE (F295E, A298E) (domain or fragment, human, UniProt Q6PIW4 285-674, looked up)
chain: GPKEDSSLPTEKTEKEQLWVDQQKKYHQPQRASGSSYGGVKKSLGASRSRGILGKFVPPIPKQDGGEQNGGMQCKPYGAGPTEPAHPVDERLKNLEPKMIELIMNEIMDHGPPVNWEDIAGVEFAKATIKEIVVWPMLRPDIFTGLRGPPKGILLFGPPGTGKTLIGKCIASQSGATFFSISASSLTSKWVGEGEKMVRALFAVARCQQPAVIFIDEIDSLLSQRGDGEHESSRRIKTEFLVQLDGATTSSEDRILVVGATNRPQEIDEAARRRLVKRLYIPLPEASARKQIVINLMSKEQCCLSEEEIEQIVQQSDAFSGADMTQLCREASLGPIRSLQTADIATITPDQVRPIAYIDFENAFRTVRPSVSPKDLELYENWNKTFGCGK
activity to dissociate RAD51 from ssDNA relative to wild-type FIGNL1ΔN (0.2 µM protein): 3.2 fold decrease
